# Experimental data: patent US20260224762A1, “RADIONUCLIDE LABELLED PEPTIDE CONJUGATE FOR SITE-SPECIFIC UPAR-TARGETING” (CURASIGHT A/S, priority 2023, published 2026)
# Entries after “also recorded” stand apart in the source; their conditions may differ. Where two headings read alike, the source gives them in different places.
# Legend:
# [1] = test system: subcutaneous U87 MG tumors; assay: in vivo; set-up: species or system female NMRI nude mice; settings: mouse
# Procedure: (§1) The biodistribution of 225Ac-DOTA-AE105 was evaluated in female NMRI nude mice bearing subcutaneous U87 MG tumors. The U87 MG tumor cell line is a human glioblastoma cell line. Animals were stratified into two groups (A and B) based on tumor volume and body weight on study day-2. Animals in group A were injected with 30 kBq of 225Ac-DOTA-AE105 having a specific activity of 30 kBq/nmol, animals in group B received a thousand-fold dose of DOTA-AE105 (cold construct) immediately before receiving 30 kBq of 225Ac-DOTA-AE105 having a specific activity of 30 kBq/nmol. The biodistribution was evaluated using conventional ex vivo biodistribution 1 hour (1H) after injection. The results are shown in FIG. 10 as percentage injected dose per gram (% ID/g) and are corrected for radioactive decay.
# in vivo [2] = assay: in vivo; set-up: species or system female NMRI nude mice; settings: female, NMRI nude, mouse, 30 kBq, total radioactivity
# Procedure: as §1
# uPAR = uPAR (Homo sapiens, UniProt Q03405); assay: uPAR binding by Surface Plasmon Resonance (SPR); settings: for SPR K(off) / SPR K(on): 18 degrees Celsius, HEPES pH 7.4
# Procedure: Characterization of the binding properties of lead (Pb) labelled DOTA-AE105 to its target i.e. uPAR was measured by Surface Plasmon Resonance (SPR) and expressed as the binding constant (KD), which is a measure of affinity of the conjugate towards its target.
# Characterizing the interaction between a target protein (in this case uPAR) and a ligand by SPR is a well-known method for the skilled person.
# The target protein uPAR was captured, via a protein tag, onto a sensor chip and the test compound (Pb2+-DOTA-AE105 and Cu2+-DOTA-AE105 respectively) were dissolved in running buffer (10 mM HEPES buffer at pH 7.4, 150 mM NaCl, […]+0.05% Tween-20) and prepared in 5-point concentration series with three-fold dilution with top concentration around 500 nM of the test compound. The assay was conducted at 18 degrees Celsius.
# [3] = test system: subcutaneous U87 MG tumors; assay: Treatment efficacy of 177Lu-DOTA-AE105 in glioblastoma xenograft mice; type: in vivo, female NMRI nude mice; settings: study day 18; group B 92.1 MBq p=0.32; group C three doses of about 30 MBq p=0.84
# Procedure: Furthermore, the efficacy of 177Lu-DOTA-AE105 was tested in female NMRI nude mice bearing subcutaneous U87 MG tumors.
# Animals were stratified into three groups (A, B, and C) based on tumor volume and body weight on study day 0. The mean inclusion volume was […] (range 15.0-339.0 mm^3), while the inclusion weight was 23.6±0.4 g (range […]).
# Animals were dosed with either vehicle (group A) or 177Lu-DOTA-AE105 (group B, and C) at different activity levels on study day 0. Animals in group B received 92.1±1.7 MBq, animals in group C received 32.9±0.4 MBq. At study day 4 animals in group C received an additional dosing with 26.7±0.2 MBq and at study day 8 animals in group C were dosed with 30.7±0.2 MBq. Doses are calculated by retracting residual dose from the activity measured before injection. No decay correction has been applied.
# Tumor volume and body weight was monitored twice a week after the first dosing. The efficacy was evaluated over a period of 5 weeks after first dosing. Each of the treatment groups were compared to the vehicle control group A.
# Differences in tumor volume were evaluated at the latest timepoint where minimum 50% of animals were alive within each of the compared groups.
# [4] = set-up: species or system female NMRI nude mice; settings: mouse, in vivo, 50 MBq
# Procedure: The tumor binding and retention of 177Lu-DOTA-AE105 was evaluated in female NMRI nude mice bearing subcutaneous U87 MG tumors.
# Animals were dosed with approximately 50 MBq 177Lu-DOTA-AE105 at study day 0. Tumor binding and retention of 177Lu-DOTA-AE105 was evaluated by SPECT/CT imaging at 0.5H, 2H and 24H after injection. The results for tumor binding and retention of 177Lu-DOTA-AE105 and the data for 67Cu-DOTA-AE105 from example 2 (table 5b) are summarized in table 6 below.
# tumor = settings: in vivo; cited from earlier work
# [5] = test system: subcutaneous U87 MG tumors; assay: in vivo; set-up: species or system female NMRI nude mice; settings: mouse; remark: listed apart in the source
# Procedure: (§2) The biodistribution of 67Cu-DOTA-AE105 was evaluated in female NMRI nude mice bearing subcutaneous U87 MG tumors. The U87 MG tumor cell line is a human glioblastoma cell line. Animals were stratified into four groups (A, B, C, D) based on tumor volume and body weight on study day-2. Animals in group A were injected with 26.4±0.4 MBq, animals in group B received 55.1±0.2 MBq, animals in group C received 54.3±0.5 MBq and animals in group D received 55.2±0.2 MBq (mean±SEM). The biodistribution was evaluated using SPECT/CT imaging, 2H, 24H, 48H, 96H and 168H after injection. Furthermore, conventional ex vivo biodistribution was evaluated after final imaging timepoints 96H and 168H.
# (§3) The results are shown in FIG. 1 as percentage injected dose per gram (% ID/g) and are corrected for radioactive decay. The data in FIG. 1 are derived from the in vivo SPECT/CT imaging.
# in vivo [6] = assay: in vivo; set-up: species or system female NMRI nude mice; settings: female, NMRI nude, mouse, iv, total radioactivity
# Procedure: as §2, §3
# uPAR, sequence (Q03405 23-305): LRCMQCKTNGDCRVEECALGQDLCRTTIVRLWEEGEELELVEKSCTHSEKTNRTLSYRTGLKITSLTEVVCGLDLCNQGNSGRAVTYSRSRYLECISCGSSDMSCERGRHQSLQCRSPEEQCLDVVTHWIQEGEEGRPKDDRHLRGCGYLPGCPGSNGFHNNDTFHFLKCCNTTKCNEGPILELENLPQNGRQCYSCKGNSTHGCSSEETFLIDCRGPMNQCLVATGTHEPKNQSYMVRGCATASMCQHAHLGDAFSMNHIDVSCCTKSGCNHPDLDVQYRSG
structure (smiles),measurement,setting,value
"CC(C)C[C@H](NC(=O)[C@H](Cc1ccc(O)cc1)NC(=O)C(CCCNC(=N)N)NC(=O)C(CO)NC(=O)C(Cc1ccccc1)NC(=O)[C@H](CC1CCCCC1)NC(=O)[C@H](CC(=O)O)NC(=O)CN1CCN(CC(=O)O)CCN(CC(=O)O)CCN(CC(=O)O)CC1)C(=O)N[C@@H](Cc1c[nH]c2ccccc12)C(=O)N[C@@H](CO)C(N)=O (single isomer, unassigned) [225Ac-DOTA-AE105, metal not drawn]","Tumor binding, times higher compared to 177Lu-DOTA-AE105",[1],approximately 5 times
same,tissue uptake at 1 h,in vivo [2],3 %ID/g
CC(C)C[C@H](NC(=O)[C@H](Cc1ccc(O)cc1)NC(=O)[C@@H](CCCNC(=N)N)NC(=O)[C@@H](CO)NC(=O)[C@H](Cc1ccccc1)NC(=O)[C@H](CC1CCCCC1)NC(=O)[C@@H](CC(=O)O)NC(=O)CN1CCN(CC(=O)O)CCN(CC(=O)O)CCN(CC(=O)O)CC1)C(=O)N[C@@H](Cc1c[nH]c2ccccc12)C(=O)N[C@@H](CO)C(N)=O [Pb2+-DOTA-AE105],SPR K(off),uPAR,1.78
same,SPR K(on),uPAR,0.102
same,Affinity fold higher than Cu2+-DOTA-AE105,uPAR; ratio of KD,more than 10 fold
CC(C)C[C@H](NC(=O)[C@H](Cc1ccc(O)cc1)NC(=O)[C@@H](CCCNC(=N)N)NC(=O)[C@@H](CO)NC(=O)[C@H](Cc1ccccc1)NC(=O)[C@H](CC1CCCCC1)NC(=O)[C@@H](CC(=O)O)NC(=O)CN1CCN(CC(=O)O)CCN(CC(=O)O)CCN(CC(=O)O)CC1)C(=O)N[C@@H](Cc1c[nH]c2ccccc12)C(=O)N[C@@H](CO)C(N)=O [Cu2+-DOTA-AE105],SPR K(off),uPAR,19.95
same,SPR K(on),uPAR,0.110
"CC(C)C[C@H](NC(=O)[C@H](Cc1ccc(O)cc1)NC(=O)[C@@H](CCCNC(=N)N)NC(=O)[C@@H](CO)NC(=O)[C@H](Cc1ccccc1)NC(=O)[C@H](CC1CCCCC1)NC(=O)[C@H](CC(=O)O)NC(=O)CN1CCN(CC(=O)O)CCN(CC(=O)O)CCN(CC(=O)O)CC1)C(=O)N[C@@H](Cc1c[nH]c2ccccc12)C(=O)N[C@@H](CO)C(N)=O [177Lu-DOTA-AE105, metal not drawn]",Tumor volume compared to vehicle control group / therapeutic effect,[3],no significant difference; also recorded: did not show any therapeutical effect
same,tissue uptake at 0.5 h,[4],0.749 ± 0.166 %ID/g
same,tissue uptake at 2 h,[4],0.128 ± 0.011 %ID/g
same,tissue uptake at 24 h,[4],0.098 ± 0.001 %ID/g
same,Tumor binding and tumor retention compared to the peptide alone,tumor,vastly decreased
"CC(C)C[C@H](NC(=O)[C@H](Cc1ccc(O)cc1)NC(=O)C(CCCNC(=N)N)NC(=O)C(CO)NC(=O)C(Cc1ccccc1)NC(=O)[C@H](CC1CCCCC1)NC(=O)[C@H](CC(=O)O)NC(=O)CN1CCN(CC(=O)O)CCN(CC(=O)O)CCN(CC(=O)O)CC1)C(=O)N[C@@H](Cc1c[nH]c2ccccc12)C(=O)N[C@@H](CO)C(N)=O (single isomer, unassigned) [67Cu-DOTA-AE105, metal not drawn]","Tumor binding, times higher compared to 177Lu-DOTA-AE105",[5],approximately 50 times
same,"Uptake in other organs such as heart, kidney, and muscle",[5],low uptake
same,tissue uptake at 2 h,in vivo [6]; 30 MBq,5.31 ± 0.73 %ID/g
same,tissue uptake at 24 h,in vivo [6]; 30 MBq,5.02 ± 0.08 %ID/g
same,tissue uptake at 48 h,in vivo [6]; 30 MBq,3.44 ± 0.11 %ID/g
same,tissue uptake at 96 h,in vivo [6]; 30 MBq,1.74 ± 0.22 %ID/g
same,tissue uptake at 168 h,in vivo [6]; 30 MBq,0.88 ± 0.15 %ID/g
same,tissue uptake at 2 h,in vivo [6]; 60 MBq,6.61 ± 1.11 %ID/g
same,tissue uptake at 24 h,in vivo [6]; 60 MBq,6.47 ± 0.5 %ID/g
same,tissue uptake at 48 h,in vivo [6]; 60 MBq,4.24 ± 0.14 %ID/g
same,tissue uptake at 96 h,in vivo [6]; 60 MBq,1.7 ± 0.07 %ID/g
same,tissue uptake at 168 h,in vivo [6]; 60 MBq,0.64 ± 0.05 %ID/g
